# Changes are numbered by the printed parent chain. Names may count otherwise.
# B1: ArsD109/C12A/C13A/C39S (domain or fragment, Escherichia coli (plasmid R773), UniProt P46003 1-109, looked up)
# chain: MKTLMVFDPAMAASTGVCGTDVDQALVDFSTDVQWLKQSGVQIERFNLAQQPMSFVQNEKVKAFIEASGAEGLPLLLLDGETVMAGRYPKRAELARWFGIPLDKVGLAP
# B2: ArsD109 (ArsD arsenic metallochaperone of plasmid R773, residues 1-109, wild type) (domain or fragment, Escherichia coli (plasmid R773), UniProt P46003 1-109, looked up)
# chain: B1 chain with A12C, A13C, S39C
# Biological target: the molecule itself
# Experiment: crystal structure
row,Protein,binding result
1,B1,binds
2,B2,binds

# From paper PMC2909130 (Biochemistry, 2010)
